Target: 3 × LPG (truncated derivative of linker-protein G with three linker sequence repeats) (Streptococcus strain G148)
Test: QCM-D; 3 × LPG (3.27–654 nM) adsorbed on SiO2-coated sensor, free sites blocked with 1 mg/mL BSA, trastuzumab injected at 1 µg/mL; 1 × PBS pH 7.4, 22 °C, flow 150 µL/min; mass from the Voigt viscoelastic model

“trastuzumab (humanized anti-HER2 monoclonal antibody)” was tested. Which mass deposited for bound trastuzumab did it give?
Its mass deposited for bound trastuzumab is 1020 ng/cm^2.
